Measurements taken from US10139419B2, “Methods for detecting Aβ oligomers” (SYSTEM OF SYSTEMS ANALYTICS, INC., priority 2014, dated 2018).
Bridge positions count the residues as written; N and C are the ends. Square brackets hold non-standard residues; d marks the D form. Ends that are not written are not given here. * marks the point of attachment. FITC = O=C1OC2(c3ccc(O)cc3Oc3cc(O)ccc32)c2ccc(NC(=S)*)cc21; Ahx = NCCCCCC(=O)O

Legend:
synthetic Aβ oligomer = target: T1, synthetic Aβ oligomer (Homo sapiens, UniProt P05067); experiment: Fluorescence detection assay of synthetic Aβ oligomer spiked into human CSF; type: binding; settings: 10 mM HEPES pH 7.0; 0.005% NP-40; 10% normal human cerebrospinal fluid; 70 nM pyrenated peptide; 37° C.
T1 construct: The monomers can comprise one or more of Aβ3-42, Aβ37, Aβ38, Aβ39, Aβ40 and Aβ42; host or cells: synthetic peptide oligomer
Protocol: Samples of CSF from a normal human subject are spiked with different concentrations of synthetic Aβ oligomer, and subjected to fluorescence detection assay using peptide probe AD315 (SEQ ID NO:65). The detection is performed in an assay with the following conditions: 10 mM HEPES buffer at pH 7.0; 0.005% NP-40; 10% normal human cerebrospinal fluid; 70 nM pyrenated peptide; and 37° C. incubation.

Aβ42 oligomer [1] = target: T2, Aβ42 oligomer (Homo sapiens, UniProt P05067); experiment: Streptavidin bead binding assay with gel electrophoresis detection; settings: column 4
Protocol: An assay is performed to analyze peptide probe binding to Aβ42 oligomer. The peptide probe is the same as the probe in EXAMPLE 8. Five samples are analyzed: (1) Aβ42 biotinylated oligomer as a positive control; (2) Aβ42 biotinylated oligomer bound to a bead via streptavidin; (3) peptide positive control; (4) peptide probe bound to Aβ42 biotinylated oligomer bound to a bead via streptavidin; and (5) peptide probe bound to a bead via streptavidin. Detection was by gel electrophoresis.

Aβ42 oligomer [2] = target: T2, Aβ42 oligomer; experiment: Fluorescent anisotropy versus Aβ42 oligomer concentration; type: binding
Aβ oligomer [3] = target: T3, Aβ oligomer (Homo sapiens, UniProt P05067); experiment: Peptide Linked Immunosorbent Assay (PLISA) compared with ELISA; type: binding; settings: ELISA with Aβ antibody 6E10 labeled with horse radish peroxidase
Description: FIG. 7 depicts different formats for a PLISA as described herein. PLISA (A) depicts a sandwich format in which a target oligomer, such as an Aβ oligomer (SDS Oligo), binds to both surface-bound peptide probe (peptide) and peptide probe tagged with a label (Tag). The complex is detected using a labeled antibody (Anti-TagAb-label). PLISA (B) depicts a sandwich format in which the peptide probe tagged with a label is replaced by a labeled antibody (Ab-label) specific to the Aβ oligomer. PLISA (C) depicts a sandwich format in which the surface-bound peptide probe is replaced with an antibody specific to the Aβ oligomer (Ab-6E10). PLISA (D) depicts a competitive format in which Aβ oligomer in a biological sample competes with surface-bound Aβ oligomer for a labeled peptide probe. Each of PLISA (A)-(D) can use a solid-phase format (shown here as a bead, in which the bead is passed through an apparatus for detecting the labels).
Different concentrations of Aβ oligomer in solution are subjected to both PLISA and ELISA to determine the sensitivity of each assay, as measured by dose response curves. For the PLISA assay, the peptide probe used is AD317 (SEQ ID NO:41). For the ELSIA, the antibody used is Aβ antibody 6E10 labeled with horse radish peroxidase. […]

Aβ oligomer [4] = target: T3, Aβ oligomer; experiment: PLISA using PEP-11 peptide probes on Aβ monomer, oligomer and fiber; type: binding
Description: PEP-11ds is also represented by SEQ ID NO:64, but has a disulfide bridge at the two cysteines.

T3 sequence (P05067 672-713 limits assumed): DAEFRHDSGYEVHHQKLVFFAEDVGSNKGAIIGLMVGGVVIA
T2 sequence (P05067 672-713 limits assumed): as above
T1 sequence (P05067 672-713 limits assumed): as above

In the case of “AD315: Salt bridge at G29H and G33E; PBA and NH2 additions; pyrenated peptide (KLVFFAEDVGSNKHAIIELMK-NH2; not fully specified (N-terminus); also: PBA addition, pyrene label)”, the “fluorescence response to synthetic Aβ oligomer concentration” value (synthetic Aβ oligomer) is reported as “linear, dose-dependent curve”, the “binding of peptide probe to bead-bound Aβ42 biotinylated oligomer” value (Aβ42 oligomer [1]) is reported as “can be used to detect Aβ42 oligomer” and the “fluorescent anisotropy (milli-r) as a function of Aβ42 oligomer concentration (nN)” value (Aβ42 oligomer [2]) is reported as “decreases as oligomer concentration increases”.

“AD317: P22, biotin labeled with thrombin site linker, at C-terminus (KLVFFAEDVGSNKHAIIELMKGLVPRGSGK; not fully specified (residue 30, C-terminus); also: biotin label at C-terminus via thrombin site linker, attachment place not given here)” was tested, and the “sensitivity for detecting Aβ oligomer, PLISA vs ELISA (dose response curves)” value (Aβ oligomer [3]) was “more sensitive assay for detecting Aβ oligomer than the ELISA”.

For “Pep11-a: consists of SEQ ID NO:64, at a purity of 86% (standard) ({FITC}-[Ahx]CLVFFAEDVGSNKGAIIGLMC[dR][dR]; not fully specified; cysteine pairing not given here)”, the “preferential detection/binding of Aβ oligomer as compared to Aβ monomer or fiber” value (Aβ oligomer [4]) was “preferentially detect Aβ oligomer”.

With “Pep11-b: consists of SEQ ID NO:64, at a purity of 95% (high) ({FITC}-[Ahx]CLVFFAEDVGSNKGAIIGLMC[dR][dR]; not fully specified; cysteine pairing not given here)” the “preferential detection/binding of Aβ oligomer as compared to Aβ monomer or fiber” value (Aβ oligomer [4]) was “preferentially detect Aβ oligomer”.

“Pep11-ds: represented by SEQ ID NO:64, but has a disulfide bridge at the two cysteines ({FITC}-[Ahx]CLVFFAEDVGSNKGAIIGLMC[dR][dR]; disulfide 2-22; not fully specified)” was tested, and the “preferential detection/binding of Aβ oligomer as compared to Aβ monomer or fiber” value (Aβ oligomer [4]) was “preferentially detect Aβ oligomer”.
